Patent US7713932B2, “Calcitonin drug-oligomer conjugates, and uses thereof” (Biocon Limited, priority 2001, dated 2010)
Where “and” joins values, the source holds several entries; their conditions need not be identical. Equal values may be shown once.

Tests used:
Format in all cases: in vitro ADME
[1] = Enzymatic stability: 0.5 U/mL chymotrypsin digest; details: chymotrypsin 0.5 U/mL, pH 7.4, Non-Formulated, replicate columns, read-out: % Remaining Following 0.5 U/mL Chymotrypsin Digest
Procedure: (§1) Compounds, supplied as lyophilized powders, are resuspended in 10 mM phosphate buffer pH 7.4 and then submitted for concentration determination by HPLC. The phosphate buffer is used to create a solution with a pH that is optimum for activity of each particular gut enzyme. Aliquots of the compound thus prepared are transferred to 1.7 mL microcentrifuge tubes and shaken in a 37° C. water bath for 15 minutes to allow compounds to equilibrate to temperature. After 15 minutes, 2 μL of the appropriate concentrated gut enzyme is added to each tube to achieve the final concentration desired. Chymotrypsin and trypsin are resuspended in 1 mM HCl. Also, as a control, compounds are treated with 2 μL of 1 mM HCl. Immediately following additions, 100 μL of sample is removed from the control tube and quenched with either 25 μL of chymotrypsin/trypsin quenching solution (1:11% TFA:Isopropanol). This sample will serve as T=0 min. A sampling procedure is repeated at various time intervals depending on the gut enzyme used. Chymotrypsin has 15, 30 and 60 minute samples. Trypsin has 30, 60, 120 and 180 minute samples. Once all points have been acquired, a final sample is removed from the control tube to make sure that observed degradation is not temperature or buffer related. The chymotrypsin and trypsin samples may be collected directly into HPLC vials. RP-HPLC (acetonitrile gradient) is used to determine AUC for each sample and % degradation is calculated based from the T=0 min control. The results are provided below in Tables 1 to 4.

Chymotrypsin = experiment: Enzymatic stability: 0.5 U/mL chymotrypsin digest; details: for % Remaining Following 0.5 U/mL Chymotrypsin Digest: replicate columns; for % Remaining, Control: Control tube (1 mM HCl, no enzyme)
Procedure: as §1

[2] = Enzymatic stability: 1 U/mL trypsin digest; details: trypsin 1 U/mL, pH 7.4, Non-Formulated, replicate columns, read-out: % Remaining following 1 U/mL Trypsin Digest
Procedure: as §1

Trypsin = experiment: Enzymatic stability: 1 U/mL trypsin digest; details: for % Remaining, Control: Control tube (1 mM HCl, no enzyme); for % Remaining following 1 U/mL Trypsin Digest: Non-Formulated, replicate columns
Procedure: as §1

With `COCCOCCOCCOCCOCCOCCOCCOCCCCCCCC(=O)NCCCC[C@H](NC(=O)CNC(=O)[C@H](CC(C)C)NC(=O)[C@@H](NC(=O)[C@@H]1CSSC[C@H](N)C(=O)N[C@@H](CO)C(=O)N[C@@H](CC(N)=O)C(=O)N[C@@H](CC(C)C)C(=O)N[C@@H](CO)C(=O)N[C@@H]([C@@H](C)O)C(=O)N1)C(C)C)C(=O)N[C@@H](CC(C)C)C(=O)N[C@@H](CO)C(=O)N[C@@H](CCC(N)=O)C(=O)N[C@@H](CCC(=O)O)C(=O)N[C@@H](CC(C)C)C(=O)N[C@@H](Cc1c[nH]cn1)C(=O)N[C@@H](CCCCNC(=O)CCCCCCCOCCOCCOCCOCCOCCOCCOCCOC)C(=O)N[C@@H](CC(C)C)C(=O)N[C@@H](CCC(N)=O)C(=O)N[C@H](C(=O)N[C@@H](Cc1ccc(O)cc1)C(=O)N1CCC[C@H]1C(=O)N[C@@H](CCCNC(=N)N)C(=O)N[C@H](C(=O)N[C@@H](CC(N)=O)C(=O)N[C@H](C(=O)NCC(=O)N[C@@H](CO)C(=O)NCC(=O)N[C@H](C(=O)N1CCC[C@H]1C(N)=O)[C@@H](C)O)[C@@H](C)O)[C@@H](C)O)[C@@H](C)O` the remaining at 0.25 h ([1]; 15 min) was 63%, the remaining at 0.5 h ([1]; 30 min) was 34% and the “% Remaining Following 0.5 U/mL Chymotrypsin Digest” value (Chymotrypsin; Buffered Formulation, 15 min) was 88% (2×) and 86%. The “% Remaining Following 0.5 U/mL Chymotrypsin Digest” value (Chymotrypsin; Buffered Formulation, 30 min) was 73% and 88% and 86%, the “% Remaining Following 0.5 U/mL Chymotrypsin Digest” value (Chymotrypsin; Buffered Formulation, 60 min) was 61% and 69% and 84% and the “% Remaining, Control” value (Chymotrypsin; Buffered Formulation, 60 min) was 116% and 104% and 101%. For the same compound, the “% Remaining, Control” value (Chymotrypsin; Non-Formulated, 60 min) was 104% and 88% and 97% and 103%, the remaining at 0.5 h ([2]; 30 min) was 87% and the remaining at 1 h ([2]; 60 min) was 78%. For the same compound, the remaining at 2 h ([2]; 120 min) was 72%, the remaining at 3 h ([2]; 180 min) was 81% and the “% Remaining, Control” value (Trypsin; 60 min) was 103% and 100%. The “% Remaining, Control” value (Trypsin; 120 min) was 106% and 105% and 99% and the “% Remaining, Control” value (Trypsin; 180 min) was 104% and 99%.

In the case of `CC(C)C[C@H](NC(=O)[C@H](CCCCN)NC(=O)CNC(=O)[C@H](CC(C)C)NC(=O)[C@@H](NC(=O)[C@@H]1CSSC[C@H](N)C(=O)N[C@@H](CO)C(=O)N[C@@H](CC(N)=O)C(=O)N[C@@H](CC(C)C)C(=O)N[C@@H](CO)C(=O)N[C@@H]([C@@H](C)O)C(=O)N1)C(C)C)C(=O)N[C@@H](CO)C(=O)N[C@@H](CCC(N)=O)C(=O)N[C@@H](CCC(=O)O)C(=O)N[C@@H](CC(C)C)C(=O)N[C@@H](Cc1c[nH]cn1)C(=O)N[C@@H](CCCCN)C(=O)N[C@@H](CC(C)C)C(=O)N[C@@H](CCC(N)=O)C(=O)N[C@H](C(=O)N[C@@H](Cc1ccc(O)cc1)C(=O)N1CCC[C@H]1C(=O)N[C@@H](CCCNC(=N)N)C(=O)N[C@H](C(=O)N[C@@H](CC(N)=O)C(=O)N[C@H](C(=O)NCC(=O)N[C@@H](CO)C(=O)NCC(=O)N[C@H](C(=O)N1CCC[C@H]1C(N)=O)[C@@H](C)O)[C@@H](C)O)[C@@H](C)O)[C@@H](C)O` [Salmon Calcitonin], the “% Remaining Following 0.5 U/mL Chymotrypsin Digest” value (Chymotrypsin; Buffered Formulation, 15 min) is reported as 59% and 91% and 92%, the “% Remaining Following 0.5 U/mL Chymotrypsin Digest” value (Chymotrypsin; Buffered Formulation, 30 min) is reported as 54% and 86% and 87% and the “% Remaining Following 0.5 U/mL Chymotrypsin Digest” value (Chymotrypsin; Buffered Formulation, 60 min) is reported as 55% and 82% and 85%. The “% Remaining, Control” value (Chymotrypsin; Buffered Formulation, 60 min) was 102% and 98% and 103%, the “% Remaining Following 0.5 U/mL Chymotrypsin Digest” value (Chymotrypsin; Non-Formulated, 15 min) was 62% and 35% and the “% Remaining Following 0.5 U/mL Chymotrypsin Digest” value (Chymotrypsin; Non-Formulated, 30 min) was 30% and 26% and 40% and 13% and 42%. The “% Remaining Following 0.5 U/mL Chymotrypsin Digest” value (Chymotrypsin; Non-Formulated, 60 min) was 1.6% and 5% and 12% and 1%, the “% Remaining following 1 U/mL Trypsin Digest” value (Trypsin; 30 min) was 80% and 50% and the “% Remaining following 1 U/mL Trypsin Digest” value (Trypsin; 60 min) was 66% and 28% and 69% and 76%. The “% Remaining following 1 U/mL Trypsin Digest” value (Trypsin; 120 min) was 44% and 7% and 46% and 59% and the “% Remaining following 1 U/mL Trypsin Digest” value (Trypsin; 180 min) was 2% and 31% and 46%.
